{"source": "patent US20220267441A1", "about": "(VOR BIOPHARMA, published 2022)", "binders": {"B1": {"name": "Antibody C (AbC) (antibody, IgG1, V domains shown)", "VH": "EVQLVESGGGLVQPGGSLRLSCAASGFTFNNYWMTWVRQAPGKGLEWVSSISSSGGSIYYPDSVKDRFTISRDNAKNSLYLQMNSLRAEDMAVYYCARLYYYDGGGDAWGQGTLVTVSS", "VL": "GIQMTQSPSSLSASVGDRVTITCKASQDINKYLDWYQQKPGKAPKLLIYNTNNLHTGIPSRFSGSGSGTDYTLTISSLQPEDFATYYCLQHISRWTFGGGTKVEIK", "notes": "also called humanized clone AbC"}}, "key": {"[1]": {"molecular_target": "T1, cynomolgus CD45 on live cells (primary cynomolgus PBMCs) (cynomolgus monkey)", "T1 construct": "Endogenous CD45 on PBMCs; also called cyno CD45; Cyno PBMC", "T1 chain": "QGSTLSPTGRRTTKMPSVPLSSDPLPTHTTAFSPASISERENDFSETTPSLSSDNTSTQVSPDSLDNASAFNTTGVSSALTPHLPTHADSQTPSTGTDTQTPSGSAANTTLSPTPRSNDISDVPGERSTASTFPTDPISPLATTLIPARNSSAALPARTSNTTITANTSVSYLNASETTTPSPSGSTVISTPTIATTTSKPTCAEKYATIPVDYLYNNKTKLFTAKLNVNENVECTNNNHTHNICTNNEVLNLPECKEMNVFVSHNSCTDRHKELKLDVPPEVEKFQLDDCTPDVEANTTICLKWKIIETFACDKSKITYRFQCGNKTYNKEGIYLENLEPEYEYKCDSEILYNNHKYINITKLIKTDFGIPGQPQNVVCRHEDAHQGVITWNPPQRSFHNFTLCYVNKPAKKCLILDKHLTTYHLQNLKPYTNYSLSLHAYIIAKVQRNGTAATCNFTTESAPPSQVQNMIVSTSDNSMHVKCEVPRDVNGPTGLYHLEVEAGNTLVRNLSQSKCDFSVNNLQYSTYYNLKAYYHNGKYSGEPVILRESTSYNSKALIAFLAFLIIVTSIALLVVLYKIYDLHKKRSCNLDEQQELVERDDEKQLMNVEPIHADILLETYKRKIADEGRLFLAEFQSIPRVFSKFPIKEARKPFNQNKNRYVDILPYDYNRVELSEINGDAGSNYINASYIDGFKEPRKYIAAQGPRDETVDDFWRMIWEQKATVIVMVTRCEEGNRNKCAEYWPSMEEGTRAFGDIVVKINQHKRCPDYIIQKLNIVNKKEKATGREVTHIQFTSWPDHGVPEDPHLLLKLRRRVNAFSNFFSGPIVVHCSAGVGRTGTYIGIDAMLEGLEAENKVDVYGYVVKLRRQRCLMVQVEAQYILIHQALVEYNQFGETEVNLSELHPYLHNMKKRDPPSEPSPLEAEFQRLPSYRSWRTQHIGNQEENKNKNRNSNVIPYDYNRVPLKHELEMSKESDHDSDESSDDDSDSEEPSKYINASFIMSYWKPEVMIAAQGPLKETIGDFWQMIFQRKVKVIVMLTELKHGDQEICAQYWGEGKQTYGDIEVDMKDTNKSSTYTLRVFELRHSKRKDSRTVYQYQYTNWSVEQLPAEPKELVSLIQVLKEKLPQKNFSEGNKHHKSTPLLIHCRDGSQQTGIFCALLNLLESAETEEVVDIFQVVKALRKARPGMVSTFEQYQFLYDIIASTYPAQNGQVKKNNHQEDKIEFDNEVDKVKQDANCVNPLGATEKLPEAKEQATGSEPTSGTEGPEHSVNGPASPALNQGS", "experiment": "flow cytometry on PBMCs; cyno EC50 against human EC50"}, "[2]": {"molecular_target": "T1, cynomolgus CD45 on live cells (primary …)", "experiment": "flow cytometry on PBMCs; cyno EC50 against human EC50"}, "[3]": {"molecular_target": "T2, human CD45 on live cells (REH-1 cells, primary human PBMCs) (human, UniProt P08575 26-1306)", "T2 construct": "Endogenous CD45", "T2 sequence": "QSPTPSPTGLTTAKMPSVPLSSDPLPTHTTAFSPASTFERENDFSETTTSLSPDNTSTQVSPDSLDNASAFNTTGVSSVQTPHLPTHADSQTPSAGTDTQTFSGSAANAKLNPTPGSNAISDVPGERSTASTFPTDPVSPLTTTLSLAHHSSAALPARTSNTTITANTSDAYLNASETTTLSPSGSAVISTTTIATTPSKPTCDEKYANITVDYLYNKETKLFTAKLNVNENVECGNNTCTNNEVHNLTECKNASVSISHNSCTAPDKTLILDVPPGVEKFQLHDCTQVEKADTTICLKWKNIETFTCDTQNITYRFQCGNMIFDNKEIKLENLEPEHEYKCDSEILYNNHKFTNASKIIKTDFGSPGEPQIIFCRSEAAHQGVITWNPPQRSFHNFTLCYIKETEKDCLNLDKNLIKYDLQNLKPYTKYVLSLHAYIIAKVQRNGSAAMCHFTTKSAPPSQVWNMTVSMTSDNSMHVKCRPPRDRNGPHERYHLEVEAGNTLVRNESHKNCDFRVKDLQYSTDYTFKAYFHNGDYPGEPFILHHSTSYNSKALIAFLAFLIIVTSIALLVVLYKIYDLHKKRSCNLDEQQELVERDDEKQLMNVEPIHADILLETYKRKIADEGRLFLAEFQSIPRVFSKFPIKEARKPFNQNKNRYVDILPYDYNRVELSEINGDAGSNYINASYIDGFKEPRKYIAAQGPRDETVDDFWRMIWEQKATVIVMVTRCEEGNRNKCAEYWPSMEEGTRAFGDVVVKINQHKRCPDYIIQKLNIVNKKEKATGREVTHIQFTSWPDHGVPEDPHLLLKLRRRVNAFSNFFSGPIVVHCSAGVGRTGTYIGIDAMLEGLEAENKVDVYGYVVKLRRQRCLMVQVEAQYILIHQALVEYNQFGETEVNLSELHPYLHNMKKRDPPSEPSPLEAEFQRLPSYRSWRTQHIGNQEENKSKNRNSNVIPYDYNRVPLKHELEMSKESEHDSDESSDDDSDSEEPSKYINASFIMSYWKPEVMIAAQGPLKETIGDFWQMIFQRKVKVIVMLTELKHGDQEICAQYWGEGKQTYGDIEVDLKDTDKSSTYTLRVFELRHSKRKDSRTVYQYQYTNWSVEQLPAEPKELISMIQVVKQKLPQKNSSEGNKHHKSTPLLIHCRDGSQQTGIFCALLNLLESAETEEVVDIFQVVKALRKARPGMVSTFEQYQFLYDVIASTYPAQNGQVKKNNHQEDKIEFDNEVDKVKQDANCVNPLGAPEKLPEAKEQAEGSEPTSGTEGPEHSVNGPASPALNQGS", "experiment": "flow cytometry on human PBMCs, overnight 37 C, AF488 anti-human IgG"}, "[4]": {"molecular_target": "T2, human CD45 on live cells (REH-1 cells, …)", "experiment": "flow cytometry on human PBMCs, overnight 37 C, AF488 anti-human IgG", "remark": "listed apart in the source"}, "[5]": {"molecular_target": "T3, purified human CD45 ectodomain (human CD45RABC antigen) (human, UniProt P08575 26-577)", "T3 construct": "also called hCD45", "T3 sequence": "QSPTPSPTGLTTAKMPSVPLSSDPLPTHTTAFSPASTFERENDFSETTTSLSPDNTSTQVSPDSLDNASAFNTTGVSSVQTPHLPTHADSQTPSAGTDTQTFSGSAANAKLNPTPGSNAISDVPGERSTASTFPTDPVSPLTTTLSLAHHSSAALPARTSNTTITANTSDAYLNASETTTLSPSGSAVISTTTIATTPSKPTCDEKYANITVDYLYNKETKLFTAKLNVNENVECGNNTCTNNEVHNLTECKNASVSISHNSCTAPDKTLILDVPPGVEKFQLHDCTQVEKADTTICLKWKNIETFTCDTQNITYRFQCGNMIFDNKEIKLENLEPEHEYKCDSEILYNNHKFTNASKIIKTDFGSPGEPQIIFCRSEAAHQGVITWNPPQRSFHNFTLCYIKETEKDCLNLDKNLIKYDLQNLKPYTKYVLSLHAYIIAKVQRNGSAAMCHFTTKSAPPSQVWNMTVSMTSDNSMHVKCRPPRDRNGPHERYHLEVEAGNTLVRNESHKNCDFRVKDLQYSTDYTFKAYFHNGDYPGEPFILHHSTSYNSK", "experiment": "BLI (Octet Red96), Table 11; the sentence does not name the species of CD45"}, "[6]": {"molecular_target": "T1, cynomolgus CD45 on live cells (primary …)", "experiment": "flow cytometry on cynomolgus PBMCs, overnight 37 C, AF488 anti-human IgG"}, "[7]": {"molecular_target": "T1, cynomolgus CD45 on live cells (primary …)", "experiment": "flow cytometry on cynomolgus PBMCs, overnight 37 C, AF488 anti-human IgG"}, "[8]": {"molecular_target": "T3, purified human CD45 ectodomain (human …)", "experiment": "BLI (Octet Red96), antibody on anti-human Fc sensor, 100 nM human CD45 ectodomain, 1:1 fit"}}, "note": "Where two headings read alike, the source gives them in different places.", "data": [{"binder": "B1", "values": [{"measurement": "Fold Cyno vs Human (EC50)", "setting": "[1]", "value": 1.7, "unit": "fold"}, {"measurement": "Fold Cyno v/s Human (EC50)", "setting": "[2]", "value": 2.1, "unit": "fold"}, {"measurement": "EC50", "setting": "[3]", "value": 510, "unit": "pM"}, {"measurement": "EC50", "setting": "[4]", "value": 640, "unit": "pM"}, {"measurement": "fold improved affinity over the parent clone C", "setting": "[5]", "value": "> 4", "unit": "fold"}, {"measurement": "EC50", "setting": "[6]", "value": 880, "unit": "pM"}, {"measurement": "EC50", "setting": "[7]", "value": 1340, "unit": "pM"}, {"measurement": "Kd", "setting": "[8]", "value": 2930, "unit": "pM"}, {"measurement": "koff", "setting": "[8]", "value": 0.000149, "unit": "s⁻¹"}, {"measurement": "kon", "setting": "[8]", "value": 50800, "unit": "M⁻¹ s⁻¹"}]}]}
